Where a chain is given by its changes, count along the chain named. Names may count otherwise. Bridges are numbered along the chain shown (N, C = ends). Where no end group is shown, it is not given here. [ ]: non-standard residue; d: D form. Nle = CCCC[C@H](N)C(=O)O; Nva = CCC[C@H](N)C(=O)O; L5A = not defined here; A1 = not defined here; K1 = not defined here; K5 = not defined here; Aib = CC(C)(N)C(=O)O

B1: Conjugate 13: GLP2-2G-10Nle-12S-13L-1K-EX4 (SEQ ID NO. 12) with staple K5 at positions 17, 24 (peptide)
peptide: HGDGSFSDE[Nle]NSLLDNKAARDFIKWLIQTKITDPSSGAPPPS
modifications: bridge 17-24; not fully specified (bridges); ends not checked
B2: Conjugate 6: GLP2-2G-10Nva-1-EX4 (SEQ ID NO. 6) with staple L5A at positions 17, 24 (peptide)
peptide: HGDGSFSDE[Nva]NTILDNCAARDFICWLIQTKITDPSSGAPPPS
modifications: linker 17-24 via L5A; reading uncertain
B3: Conjugate 5: GLP2-2G-10Aib-1-EX4 (SEQ ID NO. 5) with staple L5A at positions 17, 24 (peptide)
peptide: HGDGSFSDE[Aib]NTILDNCAARDFICWLIQTKITDPSSGAPPPS
modifications: linker 17-24 via L5A; reading uncertain
B4: Conjugate 24: GLP2-2G-10Nle-5K-EX4 (SEQ ID NO. 19) with staple K5 at positions 9, 16 (peptide)
peptide: HGDGSFSDK[Nle]NTILDKLAARDFINWLIQTKITDPSSGAPPPS
modifications: linker 9-16 via K5; reading uncertain
B5: Conjugate 18: GLP2-2G-11f-1K-EX4 (SEQ ID NO. 17) with staple K5 at positions 17, 24 (peptide)
peptide: HGDGSFSDEM[dF]TILDNKAARDFIKWLIQTKITDPSSGAPPPS
modifications: linker 17-24 via K5; reading uncertain
B6: Conjugate 12: GLP2-2G-10Nle-11f-1K-EX4 (SEQ ID NO. 11) with staple K5 at positions 17, 24 (peptide)
peptide: HGDGSFSDE[Nle][dF]TILDNKAARDFIKWLIQTKITDPSSGAPPPS
modifications: bridge 17-24; not fully specified (bridges); ends not checked
B7: Conjugate 16: GLP2-2G-10Nle-11A-13A-14Nle-16A-1K-EX4 (SEQ ID NO. 15) with staple K5 at positions 17, 24 (peptide)
peptide: HGDGSFSDE[Nle]ATA[Nle]DAKAARDFIKWLIQTKITDPSSGAPPPS
modifications: linker 17-24 via K5; reading uncertain
B8: Conjugate 14: GLP2-2G-10Nle-13A-14Nle-1K-EX4 (SEQ ID NO. 13) with staple K5 at positions 17, 24 (peptide)
peptide: HGDGSFSDE[Nle]NTA[Nle]DNKAARDFIKWLIQTKITDPSSGAPPPS
modifications: linker 17-24 via K5; reading uncertain
B9: Conjugate 3: GLP2-2G-10L-1-EX4 (SEQ ID NO. 3) with staple L5A at positions 17, 24 (peptide)
peptide: HGDGSFSDELNTILDNCAARDFICWLIQTKITDPSSGAPPPS
modifications: linker 17-24 via L5A; reading uncertain
B10: Conjugate 17: GLP2-2G-1K-EX4 (SEQ ID NO. 16) with staple K5 at positions 17, 24 (peptide)
peptide: B9 peptide with L10M, C17K, C24K
modifications: bridge 17-24; not fully specified (bridges); ends not checked
B11: Conjugate 10: GLP2-2G-6-EX4 (SEQ ID NO. 9) with staple L5A at positions 11, 18 (peptide)
peptide: B9 peptide with L10M, N11C, C17L, A18C, C24N
modifications: linker 11-18 via L5A; ends not checked
B12: Conjugate 23: GLP2-2G-5K-EX4 (SEQ ID NO. 18) with staple K5 at positions 9, 16 (peptide)
peptide: B9 peptide with E9K, L10M, N16K, C17L, C24N
modifications: bridge 9-16; not fully specified (bridges); ends not checked
B13: Conjugate 25: GLP2-2G-1Orn-EX4 (SEQ ID NO. 20) with staple K5 at positions 17, 24 (peptide)
peptide: B9 peptide with L10M, C17X, C24X
modifications: Orn at 17 and 24; staple K5 attached at positions 17, 24 (ornithines)
B14: Conjugate 7: GLP2-2G-10V-1-EX4 (SEQ ID NO. 7) with staple L5A at positions 17, 24 (peptide)
peptide: B9 peptide with L10V
modifications: linker 17-24 via L5A; reading uncertain
B15: Conjugate 20: GLP2-2G-1K-EX4 (SEQ ID NO. 16) with staple A1 at positions 17, 24 (peptide)
peptide: B9 peptide with L10M, C17K, C24K
modifications: bridge 17-24 via A1; ends not checked
B16: Conjugate 19: GLP2-2G-1K-EX4 (SEQ ID NO. 16) with staple K1 at positions 17, 24 (peptide)
peptide: B9 peptide with L10M, C17K, C24K
modifications: bridge 17-24 via K1; ends not checked
B17: Conjugate 15: GLP2-2G-10Nle-13Nle-14Nle-1K-EX4 (SEQ ID NO. 14) with staple K5 at positions 17, 24 (peptide)
peptide: HGDGSFSDE[Nle]NT[Nle][Nle]DNKAARDFIKWLIQTKITDPSSGAPPPS
modifications: linker 17-24 via K5; reading uncertain
B18: Conjugate 1: GLP2-2G-1-EX4 (SEQ ID NO. 1) with staple L5A at positions 17, 24 (peptide)
peptide: B9 peptide with L10M
modifications: linker 17-24 via L5A; not fully specified; ends not checked
B19: Conjugate 11: GLP2-2G-10Nle-1K-EX4 (SEQ ID NO. 10) with staple K5 at positions 17, 24 (peptide)
peptide: B9 peptide with C17K, C24K
modifications: not fully specified; here or on the partner: Nle at 10; staple K5 (lactam) attached at positions 17, 24 (lysines)

mouse GLP2R (mouse), sequence (Q5IXF8 whole entry): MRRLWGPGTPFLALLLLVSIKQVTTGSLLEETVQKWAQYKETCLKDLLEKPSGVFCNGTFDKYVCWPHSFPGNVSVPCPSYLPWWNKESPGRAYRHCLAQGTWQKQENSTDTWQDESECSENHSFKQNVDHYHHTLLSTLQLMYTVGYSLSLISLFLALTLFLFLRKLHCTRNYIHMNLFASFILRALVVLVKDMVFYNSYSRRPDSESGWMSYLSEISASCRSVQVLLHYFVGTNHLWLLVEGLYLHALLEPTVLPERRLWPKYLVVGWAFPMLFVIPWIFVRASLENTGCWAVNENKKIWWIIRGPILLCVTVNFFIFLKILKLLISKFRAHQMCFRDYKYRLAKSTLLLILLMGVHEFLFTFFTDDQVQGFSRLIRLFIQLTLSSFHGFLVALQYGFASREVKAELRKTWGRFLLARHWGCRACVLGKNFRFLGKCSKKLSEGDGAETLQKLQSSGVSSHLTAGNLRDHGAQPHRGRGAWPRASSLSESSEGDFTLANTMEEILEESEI

The first assay has as its target T1, human GLP-2R (human, UniProt O95838 1-553).
T1 sequence (looked up): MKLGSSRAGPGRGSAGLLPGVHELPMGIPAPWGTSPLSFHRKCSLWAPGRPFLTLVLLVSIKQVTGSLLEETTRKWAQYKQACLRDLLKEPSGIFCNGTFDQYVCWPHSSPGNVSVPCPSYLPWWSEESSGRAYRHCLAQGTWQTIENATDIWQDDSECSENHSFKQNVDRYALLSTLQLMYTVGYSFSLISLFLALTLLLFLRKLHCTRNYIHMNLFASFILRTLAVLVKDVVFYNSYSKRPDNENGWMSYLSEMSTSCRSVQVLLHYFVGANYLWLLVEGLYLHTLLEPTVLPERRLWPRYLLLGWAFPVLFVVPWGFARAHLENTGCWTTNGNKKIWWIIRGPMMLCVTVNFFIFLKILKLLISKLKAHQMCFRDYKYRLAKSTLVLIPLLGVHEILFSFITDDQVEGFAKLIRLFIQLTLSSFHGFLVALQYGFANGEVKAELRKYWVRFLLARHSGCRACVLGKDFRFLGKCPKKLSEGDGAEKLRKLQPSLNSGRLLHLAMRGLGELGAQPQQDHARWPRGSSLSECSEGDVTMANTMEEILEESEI
Nature of the assay: cell-based or functional assay.
Details: not given
B1: the “GLP-2R - cAMP 0% FBS/nM (EC50, CRE-luciferase reporter)” value (shortened to “GLP-2R - cAMP 0% FBS/nM”) turned out to be 3.78 nM.

For B2, the “GLP-2R - cAMP 0% FBS/nM” value turned out to be 5.74 nM.

In the case of B3, the “GLP-2R - cAMP 0% FBS/nM” value came to 8.71 nM.

On to B4, for which the “GLP-2R - cAMP 0% FBS/nM” value is 8.36 nM.

With B5, the “GLP-2R - cAMP 0% FBS/nM” value worked out at 1.41 nM.

On to B6, for which the “GLP-2R - cAMP 0% FBS/nM” value amounted to 2.13 nM.

On to B7, for which the “GLP-2R - cAMP 0% FBS/nM” value amounted to 1.33 nM.

Take B8: the “GLP-2R - cAMP 0% FBS/nM” value was found to be 2.68 nM.

As to B9, the “GLP-2R - cAMP 0% FBS/nM” value is 0.87 nM.

On to B10, for which the “GLP-2R - cAMP 0% FBS/nM” value was 1.07 nM.

As to B11, the “GLP-2R - cAMP 0% FBS/nM” value is 2.09 nM and the “GLP-2R - cAMP 10% FBS/nM (EC50, CRE-luciferase reporter)” value is 102 nM.

Regarding B12, the “GLP-2R - cAMP 0% FBS/nM” value is 1.25 nM.

On to B13, for which the “GLP-2R - cAMP 0% FBS/nM” value is 2.11 nM.

Turning to B14, the “GLP-2R - cAMP 0% FBS/nM” value worked out at 1.45 nM.

Take B15: the “GLP-2R - cAMP 0% FBS/nM” value turned out to be 0.09 nM.

Consider B16, for which the “GLP-2R - cAMP 0% FBS/nM” value stood at 0.15 nM.

For the molecule B17, the “GLP-2R - cAMP 0% FBS/nM” value was 1.99 nM.

The target in another assay is 168 GPCR targets (gpcrMAX Panel by DiscoverRx). In words: cell-based or functional assay.
Details: not given
For B18, the PathHunter beta-arrestin enzyme fragment complementation, agonist mode, % activity was less than 30 % activity and the PathHunter beta-arrestin enzyme fragment complementation, antagonist mode, % inhibition is less than 35 % inhibition.

Regarding B19, the PathHunter beta-arrestin enzyme fragment complementation, agonist mode, % activity is less than 30 % activity and the PathHunter beta-arrestin enzyme fragment complementation, antagonist mode, % inhibition was less than 35 % inhibition.

Another assay relates to mouse model of environmental enteric dysfunction (EED). In words: Weaning undernutrition mouse model of environmental enteric dysfunction (EED). Type of assay: in vivo, mice. To be noted: animals weaned to CD and to RBD diet, vs untreated. As for the experimental part:
A weaning undernutrition model was used to assess the ability of GLP2-2G-10Nle-1K-EX4-K5 to treat environmental enteric dysfunction (EED). All dams were placed on an isocaloric Northeast Brazil (Regional Basic Diet—RBD), which was moderately deficient in protein, fat and minerals when their pups were 10 days old. At weaning (3 weeks of age), pups were placed on either a standard control diet (CD) or continued on RBD. At 4 weeks of age, weanlings were given drug or placebo (0.1 mg/kg formulated in PBS (vehicle)) once a day subcutaneously for 2-3 weeks. Bodyweight and food consumption were measured twice weekly. Stool was collected at weaning, 6 weeks of age, and 8 weeks of age for calorimetry and microbiome. Oral FITC-dextran was used as a measurement of barrier function. At 6 weeks of age, mice were euthanized, and jejunal tissue was collected for morphology, immunohistochemistry, and for chamber analysis of transmucosal resistance and permeability.
With `CC[C@H](C)[C@H](NC(=O)[C@H](Cc1ccccc1)NC(=O)[C@H](CC(=O)O)NC(=O)[C@H](CCCNC(=N)N)NC(=O)[C@H](C)NC(=O)[C@H](C)NC(=O)[C@H](CC(C)C)NC(=O)[C@H](CC(N)=O)NC(=O)[C@H](CC(=O)O)NC(=O)[C@H](CC(C)C)NC(=O)[C@@H](NC(=O)[C@@H](NC(=O)[C@H](CC(N)=O)NC(=O)[C@H](CCSC)NC(=O)[C@H](CCC(=O)O)NC(=O)[C@H](CC(=O)O)NC(=O)[C@H](CO)NC(=O)[C@H](Cc1ccccc1)NC(=O)[C@H](CO)NC(=O)CNC(=O)[C@H](CC(=O)O)NC(=O)[C@H](C)NC(=O)[C@@H](N)Cc1c[nH]cn1)[C@@H](C)O)[C@@H](C)CC)C(=O)N[C@@H](CC(N)=O)C(=O)N[C@@H](Cc1c[nH]c2ccccc12)C(=O)N[C@@H](CC(C)C)C(=O)N[C@H](C(=O)N[C@@H](CCC(N)=O)C(=O)N[C@H](C(=O)N[C@@H](CCCCN)C(=O)N[C@H](C(=O)N[C@H](C(=O)N[C@@H](CC(=O)O)C(=O)O)[C@@H](C)O)[C@@H](C)CC)[C@@H](C)O)[C@@H](C)CC` [GLP-2, reference compound], the “length of the small intestine” value was “significant increase”.

Another assay deals with GIPR. Nature of the assay: cell-based or functional assay.
Details: not given
Consider GIP (ligand), for which the IC50 [nM] (665/615 ratio, free cAMP) worked out at 0.02 nM.

The next assay concerns the target mouse GLP2R (mouse) (UniProt Q5IXF8). In words: cell-based or functional assay.
Details: not given
Regarding Apraglutide (peptide), the IC50 [nM] (665/615 ratio, free cAMP) worked out at 0.04 nM.

The values above are taken from US20230057847A1, “GLP2 RECEPTOR AGONISTS AND METHODS OF USE” (The Scripps Research Institute, priority 2019, published 2023).
